Test results from US12391768B2, “Antibodies to ticagrelor and methods of use” (MEDIMMUNE LIMITED, priority 2014, dated 2025).

Tests used:
TICA0162 Fab = experiment: HTRF competition binding selectivity assay, TICA0162 His-Fab; design: species or system human; conditions: Table 7, DMSO normalised; 5 nM biotinylated ticagrelor, 1 nM His Fab; read-out: IC50 (uM) for inhibition of biotinylated ticagrelor binding to TICA0162 Fab
Experimental: (§1) Total Binding control wells were set up which contained all of the assay components above except that 5 ul assay buffer was added in place of the test selectivity compound addition. Negative Binding control wells were set up which contained all of the assay components included in the Total Binding control wells except that 5ul assay buffer was added in place of the His-Fab addition. Test compound serial titrations were either ½ or ⅓ depending on the particular experiment and top final assay compound concentrations were optimized on a compound specific basis. The concentration of biotinylated ticagrelor and His-Fab was optimized on a Fab specific basis in separate experiments. For the four Fabs investigated at the end of the lead isolation phase (TICA0010, TICA0049, TICA0053 and TICA0072) the final assay reagent concentrations used are set out in Table 1 below:
For the two Fabs investigated at the end of the lead optimization phase (TICA0162 and TICA0212) the final assay reagent concentrations used were 5nM biotinylated ticagrelor and 1 nM His Fab in both cases. […] In order to enable subsequent normalization of data to correct for any such vehicle related effects parallel titrations of DMSO alone were included in most experiments in which the final assay DMSO concentrations mirrored those of the test compound serial dilutions. At the end of the set up procedure that assay was incubated for 3hrs at RT before being read on an Envision plate reader using a standard read protocol. […]
In those experiments where DMSO normalization was applied DMSO normalised % Specific Binding was calculated essentially according to the equation above except that in this case Total Binding Delta F was taken from wells containing all of the components in the Total Binding control wells as well as DMSO at a concentration equivalent to that in the relevant sample well.

TICA0212 Fab = experiment: HTRF competition binding selectivity assay, TICA0212 His-Fab; design: species or system human; conditions: Table 7, DMSO normalised; 5 nM biotinylated ticagrelor, 1 nM His Fab; read-out: IC50 (uM) for inhibition of biotinylated ticagrelor binding to TICA0212 Fab
Experimental: as §1
For the two Fabs investigated at the end of the lead optimization phase (TICA0162 and TICA0212) the final assay reagent concentrations used were 5nM biotinylated ticagrelor and 1 nM His Fab in both cases. […] At the end of the set up procedure that assay was incubated for 3hrs at RT before being read on an Envision plate reader using a standard read protocol. […]

[1] = Total plasma concentration of ticagrelor and TAM (LC-MS/MS); assay type: in vivo, mice
Experimental: Blood samples were collected in tubes with EDTA anticoagulant and centrifuged for 5 min at 10000× g at room temperature to prepare plasma. The plasma concentration of ticagrelor and TAM were determined by protein precipitation and liquid chromatography with tandem mass spectrometry (LC-MS/MS) as described in published method [Sillén H., et al., J Chromatogr B Analyt Technol Biomed Life Sci 2010; 878: 2299-306] with the following deviations. Plasma, 50 μL, was protein precipitated with 180 μl internal standard (D7-ZD6140) in acetonitrile. The liquid chromatographic system and mass spectrometer was an Acquity Ultra Performance LC coupled to a Xevo TQ-S mass spectrometer from Waters. Chromatographic separation was achieved on an Aquity UPLC® BEH C18 column (2.1×50 mm, particle size 1.7 um). Negative electrospray ionization was utilized. Eluent A was water with 10 mmol/L ammonium acetate, pH5 and eluent B was acetonitrile with 10 mmol/L ammonium acetate. Injection volume was 1 to 5 μL and the analytical gradient started with 4% B, increasing to 95% in 1.5 min, remaining until 2.3 min, before returning to initial conditions within 2.4 min followed by 0.3 min re-equilibration. No quality control samples were used in the analysis. The lower limit of quantification (LLOQ) was 0.005 μmol/L and the calibration range was 0.005 to 15.0 μM.
The total plasma concentrations of ticagrelor and TAM in presence of TICA0212/MEDI2452 were determined by adding 1% formic acid (FA: Sample, 1:5) followed by protein precipitation and LC-MS/MS as described above. Formic acid was added to the sample to facilitate dissociation of ticagrelor and TICA0212/MEDI2452.

[2] = tested on: TAM mediated inhibition of ADP-induced platelet aggregation; experiment: Light transmission aggregometry in human PRP, reversal of TAM; assay type: cell-based; conditions: for mean extent of TAM reversal: Example 10, 1 μM Fab, n=3
Experimental: The extent and potency of TICA0212/MEDI2452 to reverse ticagrelor or TAM mediated inhibition of ADP-induced platelet aggregation was determined in human platelet rich plasma (PRP) using light transmission aggregometry.
For the in vitro human PRP assay, blood was collected from fasted healthy volunteers by vein puncture of vena cephalica. […] The anticoagulated human blood was centrifuged at 240× g for 15 min. PRP was carefully removed and transferred to a clean vial. Platelet poor plasma (PPP) was prepared by centrifugation of the PRP at 2000× g for 15 min. Light transmission aggregometry (LTA) was evaluated in PRP by the Platelet Aggregation Profiler (PAP-8E, Bio/Data Corporation, PA, USA.). Zero % aggregation was defined as the light transmission of PRP and 100% aggregation was defined as the light transmission of PPP.
PRP was preincubated with 1 μM ticagrelor or TAM for 1 hour before co-incubating with different concentrations of TICA0212 or an isotype control Fab for 30 minutes. Platelet aggregation was initiated by addition of 20 uM ADP and was continuously recorded for 6 min. Data for final aggregation (FA) extent at 6 min was analysed.
The time of onset of TICA0212/MEDI2452 to reverse ticagrelor or TAM was determined in human platelet rich plasma (PRP) using light transmission aggregometry as in example 8. PRP was preincubated with 1 μM ticagrelor or TAM for 1 hour before adding 1 μM TICA0212/MEDI2452 and co-incubating for 5, 10, 15, 30 and 60 min, or adding an isotype control Fab for 30 min. Platelet aggregation was initiated by addition of 20 μM ADP and was continuously recorded for 6 min. Data for final aggregation (FA) extent at 6 min was analyzed.

Q: With `CCCSc1nc(N[C@@H]2C[C@H]2c2ccc(F)c(F)c2)c2nnn([C@@H]3C[C@H](OCCO)[C@@H](O)[C@H]3O)c2n1` [Ticagrelor, (1S,2S,3R,5S)-3-[7-{[(1R,2S)-2-(3,4-difluorophenyl)cyclopropyl]amino}-5-(propylthio)-3H-[1,2,3]triazolo[4,5-d]pyrimidin-3-yl]-5-(2-hydroxyethoxy)cyclopentane-1,2-diol] as the molecule, how does the IC50 (TICA0162 Fab) read?
A: 0.023 µM

Q: And the IC50 (TICA0212 Fab)?
A: 0.035 µM

Q: What about the “ticagrelor plasma exposure, average” value ([1]; Example 11, after termination of the ticagrelor infusion, i.v., mice) of the same molecule?
A: 1.4 µM

Q: And the “mean total plasma concentration” value ([1]; Example 12, end of ticagrelor infusion 300 μg/kg/min 20 min, mice)?
A: 7.6 µM

Q: What about the “mean total plasma concentration at time of tail cut” value ([1]; Example 12, vehicle treated mice, t=30 minutes) of the same molecule?
A: 2.4 µM

B1: TICA0212: combination of TICA0162 and TICA0152; VH SEQ ID NO:72, VL SEQ ID NO:77 (antibody, listed as Homo sapiens, V domains shown)
VH: QVQLQESGAEVKKPGSSVRVSCKASGGTFDSYSIHWVRQAPGQGLEWMGGIIPAFGTLSSAQDFQARVTISADKSTSTAYMELSGLRSEDTAVYYCARGSFDYYFWSASHPPNDALAIWGQGTLVTVSS
VL: QSVVTQPPSVSAAPGQKVTISCSGSNSDIGNNYVSWYQQLPGTAPKLLIYDNNKRPSGIPDRFSGSKSGTSATLAITGLQAGDEADYYCGTWLYDRAVGLFGGGTKVTVL
Q: For B1, which IC50 ([2]; 1 μM TAM, 20 μM ADP, human PRP, 30 min co-incubation, mean n=5, read-out: IC50, half-maximum reversal of TAM mediated inhibition of ADP-induced platelet aggregation) is on record?
A: 780 nM

Q: What about the “mean extent of reversal of TAM” value ([2]; Example 9, 1:1 conditions (1 μM Fab: 1 μM TAM), 30 min incubation) of the same molecule?
A: 62%

Q: What about the “mean extent of TAM reversal” value ([2]; 1 μM TAM, co-incubation 5 min) of the same molecule?
A: 53%

Q: And the “mean extent of TAM reversal” value ([2]; 1 μM TAM, co-incubation 10 min)?
A: 56%

Q: What about the “mean extent of TAM reversal” value ([2]; 1 μM TAM, co-incubation 15 min) of the same molecule?
A: 58%

Q: What about the “mean extent of TAM reversal” value ([2]; 1 μM TAM, co-incubation 30 min) of the same molecule?
A: 69%

Q: And the “mean extent of TAM reversal” value ([2]; 1 μM TAM, co-incubation 60 min)?
A: 74%
